Legend:
Assay in all cases: cell-based or functional assay
Details in all cases: scale: β-galactosidase activity units
[1] = biological target: GAL4 DNA-binding domain alone (empty pAS2-1 vector, negative control bait) (UniProt P04386)
[2] = biological target: hD52 bait (GAL4 DNA-binding domain fused to full-length hD52, pAS2-1hD52) (human)
[3] = biological target: hD53 bait (GAL4 DNA-binding domain fused to full-length hD53, pAS2-1hD53) (human)
[4] = biological target: hD54+ins2 bait (GAL4 DNA-binding domain fused to hD54+ins2, pAS2-1hD54+ins2) (human)
[5] = biological target: hD54-ins2 bait (GAL4 DNA-binding domain fused to hD54-ins2, pAS2-1hD54-ins2) (human)
[6] = biological target: mD52 bait (GAL4 DNA-binding domain fused to full-length mD52, pAS2-1mD52) (mouse)
[7] = biological target: mD52 bait (GAL4 DNA-binding domain fused to full-length mD52, pAS2-1mD52) (mouse); remark: listed apart in the source
[8] = biological target: mD52(1-95) bait (GAL4 DNA-binding domain fused to the N-terminal half of mD52, pAS2-1mD52(1-95)) (mouse)
[9] = biological target: mD52(95-185) bait (GAL4 DNA-binding domain fused to the C-terminal half of mD52, pAS2-1mD52(95-185)) (mouse)

Row | Substance | β-galactosidase activity, yeast two-hybrid (Y190) [1] | β-galactosidase activity, yeast two-hybrid (Y190) [2] | β-galactosidase activity, yeast two-hybrid (Y190) [3] | β-galactosidase activity, yeast two-hybrid (Y190) [4] | β-galactosidase activity, yeast two-hybrid (Y190) [5] | β-galactosidase activity, yeast two-hybrid (Y190) [6] | β-galactosidase activity, yeast two-hybrid (Y190) [7] | β-galactosidase activity, yeast two-hybrid (Y190) [8] | β-galactosidase activity, yeast two-hybrid (Y190) [9]
1 | GAL4 activation domain alone (empty pACT2 vector, negative control interactor) (from UniProt P04386 768-881) | 0 | 0 | 0.14 | 0 | 0 | 0 | 0.34 | 0.36 | 0.23
2 | hD52 interactor (GAL4 activation domain fused to hD52, pAD-GAL4hD52, library clone starting at nt 46) (from UniProt P04386 761-881) | 0.17 | 0.87 | 3 | 0.85 | 1.74 | 0.16 | – | – | –
3 | hD54+ins2 interactor (GAL4 activation domain fused to hD54+ins2, pACT2hD54+ins2) (from UniProt P04386 768-881) | 0 | 2.03 | 6.01 | 5.98 | 3.51 | 0.48 | – | – | –

Further lines, results first:

Row | β-galactosidase activity, yeast two-hybrid (Y190) [1] | β-galactosidase activity, yeast two-hybrid (Y190) [2] | β-galactosidase activity, yeast two-hybrid (Y190) [3] | β-galactosidase activity, yeast two-hybrid (Y190) [4] | β-galactosidase activity, yeast two-hybrid (Y190) [5] | β-galactosidase activity, yeast two-hybrid (Y190) [6] | β-galactosidase activity, yeast two-hybrid (Y190) [7] | β-galactosidase activity, yeast two-hybrid (Y190) [8] | β-galactosidase activity, yeast two-hybrid (Y190) [9] | Substance
4 | 0.45 | 1.15 | 2.26 | 2.03 | 1.07 | 0.44 | – | – | – | hD54-ins2 interactor (GAL4 activation domain fused to hD54-ins2, pACT2hD54-ins2) (from UniProt P04386 768-881)
5 | 0 | 1.3 | 5.71 | 4.25 | 2.37 | 0.42 | – | – | – | mD52(1-163) interactor (GAL4 activation domain fused to mD52 amino acids 1-163, pACT2mD52(1-163)) (from UniProt P04386 768-881)

— patent US6528283
